Data set [1] addresses BT4410 (BtPL33^HA), PL33_1 hyaluronidase from Bacteroides thetaiotaomicron VPI-5482 (Bacteroides thetaiotaomicron VPI-5482). Description: SEC-MALS + other: SAXS; SEC-coupled light scattering and SAXS of the purified enzyme in solution, oligomeric state; conditions not shown (SI Appendix). In general terms: Size exclusion chromatography separates by hydrodynamic size, large species first.

Data set [2] deals with the molecule itself. The description is as above.

Take “BT4410 (BtPL33^HA), PL33_1 hyaluronidase from Bacteroides thetaiotaomicron VPI-5482 (enzyme)”: the stoichiometry N in data set [1] stood at 2.

B1: BcellWH2_04512 (BcPL33^HA), PL33_1 hyaluronidase from Bacteroides cellulosilyticus WH2 (enzyme)
chain: YTERNLLQKAAGSEEQLKEALVMNQKWVPYPAYNDRAGWNELLGTNKESLIRAGEKMLNYEWKVIRATDYLEYERSGERNIMQNPYEANRKAINALMLAELAEGKGRFIDQLINGAFYSCEMTSWVLSAHLVRQSTKRSLPDYREQVIDLGSGNFGSMLSWVYYFFHDSFDKIDPVISQRLRHTLQERILDPYMNNDREWWMAFQWKPGMIINNWNPWCNSNVLQCYLLLENDRDRLAKAVWRSMQSVDKFINFVKADGACEEGPSYWGHAAGKMYDYLQILSDGTDGKVSLFKEPMIRRMGEYISRTYVGNGWVVNFADASAKGGGDAPLIYRYGRAVGSEEMMQFAAYLLDGKRPSVPLGNDTFRSLQSILWNGELEKTTAAHTIPACTWYPETEFCYLTNKSGWFLATKGGFNNESHNHNDVGTFSLYVNTIPVLIDAGVGTYTRQTFSSERYTIWTMQSNYHNLPMINGVPQSFGQNYKATDVVCQPKKRFFSANIATAYPKEAEVNSWTRAYSLGDKQLTITDNFSLKSAKESNQVNFLTWGKVDISVPGKVTIDVQGQKVTLEYPGEFTATVETINLPDTRLSNVWGTEIYRIALKDKDARLTGKYKFVIK
notes: BcellWH2_04512, polysaccharide lyase family 33 subfamily 1 hyaluronidase of Bacteroides cellulosilyticus WH2; 68% identical to BtPL33^HA; Cloned in pET28a with either an N- or a C-terminal His6 tag; source: E. coli BL21 (DE3) or TUNER, purified (Talon cobalt IMAC, S200 Superdex SEC)
On to B1, for which the “stoichiometry N” value in data set [2] came out at 2.

B2: HMPREF1181_01744 (BsPL33^Heparosan), PL33_1 heparosanase from Bacteroides stercoris CC31F (enzyme)
chain: TERHLLEQTVSYEELGNVLRYRQSWVDYPAYTDRKSWKEKTAPEMRELIIRNGERALKHEWKPDLASDYLAFKRTGEIRTGRANHKALQALTLAELVEGQGRFMDAIIDGIWFLCETSWIHSAHLGFQKDRSGLPDRNEPTIELVVADIGAQMAWTYYFLKDEFDKVSPLINERIIEEVNRNLINPYFARDDYWWMGFGGQQVNNWNPWINYNVLQALMLIEKDPERVRQGVWKLMKSTDFFFSMYHEDGACDEGPTYWSGASGYALKFLDLLAKVTGNKVNIFNAPLLRNMAQYIYRVHIGGNYFVNFADSAPKVSPSPGILYRYGELTGDPAMMKFASFMAQQNQSFKDGVNGYFASALDELFMYKDIIGHPQGEPLTGTYWFKDTQICVARDTEGKSDGFFFAAKGGNNQESHNHNDVGSCILYYNALPVLIDAGVGTYTRQTFGPERYTIWTMQSDYHNLPLINGTPQKNGREFAAHSQQYKATAKTVSYQVDIAHAYPQEANVKSWIRNYTLHRKKDFTITDKWKLSACNEPSVLNLMTCCEVEIDRNKNITLTGEAGRFRVEYDKKLLSPATDTVELTDPKLIHSWNRKKLTRIRFTIVSQQISGESKLVIRKAQYHKTLND
For B2, the “stoichiometry N” value in data set [2] worked out at 2.

As a reminder, the stoichiometry N is the number of molecules, sites or subunits per partner or assembly.

Source of the values: publication PMC11848413, “Bacterial polysaccharide lyase family 33: Specificity from an evolutionarily conserved binding tunnel” (Proceedings of the National Academy of Sciences of the …, 2025).
